Source: US12486514B2, “Method to specifically stimulate survival and expansion of genetically-modified immune cells” (National University of Singapore, priority 2018, dated 2025)

Experiments:
STAT5 Y647 = test: Epo signaling: STAT5 phosphorylation by flow cytometry in transduced T cells; type: cell-based, human; conditions: for Epo signaling (pSTAT5) after JAK inhibitor: concentration that abrogated IL-2 signal
Protocol: To detect Epo signaling, cells were incubated in cytokine-free media for 2 hours before stimulated with Epo (0.01-10 IU/mL) at 37° C. for 15 minutes to 24 hours. In some experiments, cells were treated with 0.1-10 μM of ruxolitinib (Selleckchem) or 0.5-5 nM tofacitinib (Santa Cruz Biotechnology, Santa Cruz, CA) for 1 hour prior to Epo stimulation. […] In some experiments, the effects of human Epo were compared to those of murine Epo (Biolegend, San Diego, CA).

CD19+ Nalm6 ALL cells = test: Xenograft: Nalm6-luciferase cells followed 2 days later by EpoRm-CAR T cells, with or without Epo; type: in vivo, NSG mice; conditions: 100 IU Epo i.p. 3 times a week for 2 weeks
Protocol: In another model to test anti-leukemic activity of T cells, Nalm6 cells transduced with luciferase were injected i.v. (5×10^5 cells per mouse), followed 2 days later by T cells expressing EpoRm-CAR (2×10^7 cells per mouse, i.v.), while control mice received no T cells; some mice received Epo (100 IU) 3 times per week i.p. Tumor cell load was determined with the Xenogen IVIS-200 System (Perkin Elmer, Waltham, MA) after injecting aqueous D-luciferin potassium salt (150 μg/g body weight; Perkin Elmer) i.p. Luminescence was analyzed with Living Image 3.0 software. Mice were euthanized when the luminescence reached 1×10^10 photons per second, or earlier if there were physical signs warranting euthanasia.

T lymphocytes [1] = test: T cell survival/recovery in culture with or without Epo and IL-2; type: cell-based, human
Protocol: To assess cell survival, T cells were cultured in absence of exogenous cytokines, with or without Epo (4-10 IU/mL) in a flat bottom 96-well or 24-well plate (Cellstar). For cell proliferation, T cells were co-cultured with target cells (OP-1 cells) at 1:1 effector-to-target (E:T) ratio in a flat bottom 96-well plate; Epo (10 IU/mL) was added every two days. Target cells, irradiated (100 Gy) or treated with Streck cell preservative (Streck Laboratories, Omaha, NE) to inhibit growth, were added at the beginning of the cultures, and every 7 days thereafter. In some experiments, low dose (10 IU/mL) or high dose (100 IU/mL) IL-2 was added to the culture as well. The number of GFP+ T cells was measured by flow cytometry.

Epo = test: Binding of biotinylated Epo to transduced Jurkat cells
Description: Biotinylated Epo was visualized with streptavidin-PE (Jackson ImmunoResearch).

Jurkat cells = test: Jurkat cell growth curves; type: cell-based, human
T lymphocytes [2] = test: Cell cycle analysis (EdU DNA synthesis) after Epo stimulation; type: cell-based, human; conditions: exposure to Epo for 24 hours
Protocol: To determine the effect of Epo on cell cycle, cells were cultured in cytokine-free media for 3 days followed by stimulation with 10 IU/mL of Epo for 1 day. DNA synthesis was measured by Click-iT EdU AF647 Flow Cytometry Assay Kit (Thermo Fisher Scientific), and DNA content was measured with FxCycle Violet Stain (Thermo Fisher Scientific).

[3] = EpoRm-CAR T cells, Epo 10 IU/mL

N#CC[C@H](C1CCCC1)n1cc(-c2ncnc3[nH]ccc23)cn1 [ruxolitinib, reference compound]
Epo signaling (pSTAT5) after JAK inhibitor (STAT5 Y647; [3]): no effect

C[C@@H]1CCN(C(=O)CC#N)C[C@@H]1N(C)c1ncnc2[nH]ccc12 [tofacitinib, reference compound]
Epo signaling (pSTAT5) after JAK inhibitor (STAT5 Y647; [3]): no effect | STAT5 Y647 phosphorylation caused by IL-2 after JAK inhibitor (STAT5 Y647; EpoRm-CAR T cells, IL-2 100 IU/mL): completely abrogated

Epo: recombinant human Epo (Thermo Fisher Scientific), glycoprotein cytokine
effect of Epo injection on anti-leukemic activity (CD19+ Nalm6 ALL cells): did not affect the anti-leukemic activity | pSTAT5 levels induced (STAT5 Y647; EpoRm-CAR T cells, 1 IU/mL of Epo vs 50 IU/mL IL-2): significantly higher

B1: EpoR: wild-type human erythropoietin receptor (SEQ ID NO: 2) expressed in T cells by MSCV retroviral transduction (protein)
chain: MDHLGASLWPQVGSLCLLLAGAAWAPPPNLPDPKFESKAALLAARGPEELLCFTERLEDLVCFWEEAASAGVGPGNYSFSYQLEDEPWKLCRLHQAPTARGAVRFWCSLPTADTSSFVPLELRVTAASGAPRYHRVIHINEVVLLDAPVGLVARLADESGHVVLRWLPPPETPMTSHIRYEVDVSAGNGAGSVQRVEILEGRTECVLSNLRGRTRYTFAVRARMAEPSFGGFWSAWSEPVSLLTPSDLDPLILTLSLILVVILVLLTVLALLSHRRALKQKIWPGIPSPESEFEGLFTTHKGNFQLWLYQNDGCLWWSPCTPFTEDPPASLEVLSERCWGTMQAVEPGTDDEGPLLEPVGSEHAQDTYLVLDKWLLPRNPPSEDLPGPGGSVDIVAMDEGSEASSCSSALASKPSPEGASAASFEYTILDPSSQLLRPWTLCPELPPTPPHLKYLYLVVSDSGISTDYSSGDSQGAQGGLSDGPYSNPYENSLIPAAEPLPPSYVACS
survival in culture (T lymphocytes [1]; Epo 4 IU/mL, absence of exogenous IL-2): supported their survival in culture | Epo binding (Epo): could bind Epo | long-term cell growth of Jurkat cells (Jurkat cells): does not adversely affect

B2: EpoRm: truncated mutant Epo receptor, codon 439 TGG (Trp) changed to TAG (stop), SEQ ID NO: 6, expressed in T cells (protein)
chain: MDHLGASLWPQVGSLCLLLAGAAWAPPPNLPDPKFESKAALLAARGPEELLCFTERLEDLVCFWEEAASAGVGPGNYSFSYQLEDEPWKLCRLHQAPTARGAVRFWCSLPTADTSSFVPLELRVTAASGAPRYHRVIHINEVVLLDAPVGLVARLADESGHVVLRWLPPPETPMTSHIRYEVDVSAGNGAGSVQRVEILEGRTECVLSNLRGRTRYTFAVRARMAEPSFGGFWSAWSEPVSLLTPSDLDPLILTLSLILVVILVLLTVLALLSHRRALKQKIWPGIPSPESEFEGLFTTHKGNFQLWLYQNDGCLWWSPCTPFTEDPPASLEVLSERCWGTMQAVEPGTDDEGPLLEPVGSEHAQDTYLVLDKWLLPRNPPSEDLPGPGGSVDIVAMDEGSEASSCSSALASKPSPEGASAASFEYTILDPSSQLLRP
recovery of T cells (T lymphocytes [1]; 7 days, Epo 10 IU/mL added to IL-2 100 IU/mL vs IL-2, 4 donors): significantly higher | expansion of T cells (T lymphocytes [1]; 14 days, IL-2 100 IU/mL with Epo 10 IU/mL): performed better than EpoR cells | cell numbers in culture (T lymphocytes [1]; Epo added, absence of IL-2): yielding higher cell numbers | DNA synthesis elicited by Epo (T lymphocytes [2]): stimulation was higher | long-term cell growth of Jurkat cells (Jurkat cells): does not adversely affect | functionality of EpoRm (pSTAT5) when expressed with CAR (STAT5 Y647; Epo 10 IU/mL, 15 minutes): maintained | durability of STAT5 phosphorylation (STAT5 Y647; Epo 10 IU/mL, time course): more durable
